Laboratory results from patent US12630596B2, “Engineered lysin-human defensin protein” (priority 2018, dated 2026).
Entries after “also recorded” stand apart in the source; their conditions may differ.

What was measured:
[1] = tested on: C. difficile R20291 spores; experiment: Treatment efficacy in the mouse model of CDI; assay type: in vivo, C57BL/6 mice; conditions: mice
Description: After 5 days of antibiotic pretreatment, mice were given autoclaved water for 2 days, followed by a single dose of clindamycin (10 mg/kg) intraperitoneally, 1 day before (day-1) challenge with C. difficile R20291 spores by gavage (day 0). The first group (R20291+PB) was infected with 10^6 C. difficile R20291 spores on day 0, and was given PBS (PB) by gavage at 4 h after spore gavage, followed by administration of PB by gavage twice a day from the first day (day 1) to the seventh day (day 7) after spore gavage. The second group (LHD+R20291) was given 400 μg LHD by gavage at 4 h after spore gavage, followed by treatments of 400 μg LHD by gavage twice a day from day 1 to day 7 after spore gavage.
C57BL/6 mice (6-week-old) were purchased from Charles River Laboratories, MA. The mice were housed in groups of 5 animals per cage under the same conditions. All studies followed the Guide for the Care and Use of Laboratory Animals of the National Institutes of Health, and were approved by the Institutes Animal Care and Use Committee (IACUC) at University of South Florida under the animal protocol number 1S00003756. Mouse model of CDI was established as described previously (Zhang, Zhao et al. 2015). The experimental design is illustrated in FIG. 6. Briefly, twenty BL6/C57 female mice were divided into two groups (n=10). Before challenge, mice were pre-treated with antibiotics mixture (ampicillin (200 mg/kg), kanamycin (40 mg/kg), gentamicin (3.5 mg/kg), colistin (4.2 mg/kg), metronidazole (21.5 mg/kg) and vancomycin (4.5 mg/kg)) in drinking water for five days. After that, all mice were given autoclaved water for 2 days, followed by a single dose of clindamycin (10 mg/kg) intraperitoneally 1 day before (day-1) challenge with C. difficile R20291 spores at 10^6 by gavage (day 0). At 4-hr post infection, one group of mice (R20291+LHD) were given a dose of 400 μg LHD in 200 μL of PBS by gavage, and another group of mice (R20291+PB) received sterilized PBS as control. From the first day (day 1) to the seventh day (day 7) after infection, mice were given a dose of 400 μg LHD or PBS by gavage twice a day. Weight changes, diarrhea, and survivals of the mice were recorded during the 7-day monitoring period. Fecal samples from mice were collected at days 0, 1, 3, 5, and 7 post challenge for quantitating C. difficile spores and TcdA/TcdB concentration.
Fecal samples were collected on days 1, 3, 5, 7 post-infection. 50 mg of feces were dissolved with 500 μl sterile MilliQ water for 16 h at 4° C., and then treated with 500 μl of purified ethanol (Sigma-Aldrich) for 60 min at room temperature to kill vegetative cells. Samples were vortexed, serially diluted and plated onto selective medium supplemented with taurocholate (0.1% w/v), Cefoxitin (16 μg/mL), L-cycloserine (250 μg/mL). The plates were incubated anaerobically at 37° C. for 48 h, colonies counted and results expressed as the CFU/gram of feces.
After challenges with C. difficile spores, feces were collected and dissolved in an equal volume (g/ml) of sterile PBS containing protease inhibitor cocktail and the supernatants were collected after centrifugation and stored at −80° C. TcdA/TcdB concentrations in the fecal samples of […] were determined by ELISA. Brieflly, 96-well Costar microplates were coated with 100 μl of anti-TcdA antibody (1 μg/ml) and anti-TcdB antibody (1 μg/ml) overnight in phosphate-buffered saline (PBS) at 4° C. On the next day, each well was blocked with 300 ul of blocking buffer (PBS+5% dry milk) at RT for 2 hrs. Next, standards and samples were added to each well (100 μl) in duplicate and incubated for 90 min at 25° C. After another set of washes, HRP-chicken anti-C. difficile Toxin A or B (1:5,000 dilution in PBS, Gallus Immunotech, Shirley, MA) was added to wells for 30 min at RT. A final set of 3 washes preceded the addition of the TMB Microwell Peroxidase Substrate for 20 minutes at RT in the dark. […]

[2] = tested on: C. difficile R20291; experiment: Minimum inhibitory concentration (MIC) on strain R20291; assay type: cell-based, Clostridium difficile; conditions: strain R20291, BHIS, 37° C. for 18 h
Description: The minimum inhibitory concentrations (MICs) of LHD and LCD were determined using the protocol of Wiegand, et al. (Wiegand, Hilpert et al. 2008) with some modifications, as described previously (Gilmer, Schmitz et al. 2017). In brief, strain R20291 was grown in BHIS and adjusted to ˜5×10^5 cells/ml in BHIS, and distributed into the wells of a 96-well round bottom polystyrene microtiter plate. In the wells of each row, either sterile-filtered lysin or control vehicle (metronidazole, vancomycin and fidaxomicin) was added with a final concertation varied from 200 μg/ml to 0.19 μg/ml (2-fold dilution) (Wiegand, Hilpert et al. 2008). The plates were incubated at 37° C. for 18 h. The MIC was “the lowest or minimum concentration of lysin or control vehicle that prevented the formation of a cell pellet (a measure of growth) on the bottom of the wells” (Gilmer, Schmitz et al. 2017). The MICs were also confirmed by measuring the OD600 values using a Bio-Rad plate reader (Bio-Rad, Hercules, CA).

[3] = tested on: C. difficile R20291; experiment: Lytic activity of LHD on R20291 in different pH conditions; assay type: cell-based, Clostridium difficile
Description: Prior to tests, bacterial optical density at 600 nm (OD600) was adjusted to approximately 0.8-1.0. Protein LHD was added into the cell re-suspension with the final concentration of 200 μg/ml. The drop in OD600 at 37° C. was measured once per 20 minutes for 60 min. Bacterial re-suspension with sterilized water was also set as a control. Data are present as “Mean±SD”. Experiments were repeated 3 times, and representative data were shown.
Prior to tests, bacterial optical density at 600 nm (OD600) was adjusted to approximately 0.8-1.0. Protein LHD was added into the cell re-suspension with the final concentration of 100 μg/ml. The drop in OD600 at 37° C. was measured once per 20 minutes for 60 min. Bacterial re-suspension with sterile water was also set as a control. Experiments were repeated 3 times, and representative data were shown. […]

[4] = 400 μg LHD by gavage twice a day, vs PBS
[5] = R20291 spores, 400 μg LHD by gavage twice a day

B1: LHD: Fusion of phage phiC2 lysin catalytic domain (LCD, 179aa), (GGGGS)3 linker and human alpha-defensin 5; SEQ ID NO:1 (protein)
chain: MKICITVGHSILKSGACTSADGVVNEYQYNKSLAPVLADTFRKEGHKVDVIICPEKQFKTKNEEKSYKIPRVNSGGYDLLIELHLNASNGQGKGSEVLYYSNKGLEYATRICDKLGTVFKNRGAKLDKRLYILNSSKPTAVLIESFFCDNKEDYDKAKKLGHEGIAKLIVEGVLNKNINGGGGSGGGGSGGGGSATCYCRTGRCATRESLSGVCEISGRLYRLCCR
number of C. difficile spores in feces [1, 4]: significantly decreased
toxin-level in feces (TcdA, TcdB) [1, 4]: significantly decreased
survival ([1]; 7-day experimental period, 400 μg LHD by gavage twice a day): all mice receiving the treatment of LHD survived
diarrhea rate [1, 5]: 60%
duration of diarrhea [1, 5]: 3 days
weight loss ([1]; R20291 spores, 400 μg LHD by gavage twice a day, vs PBS): decreased both weight loss and diarrhea rate significantly; also recorded: significantly less weight
weight recovery ([1]; from 3 dpi to 7 dpi, vs PBS): slower
MIC [2]: 0.78 mg/L
lytic activity at pH ([3]; PH of 5, R20291): partially active
lytic activity at pH ([3]; PHs of 2, 3, and 4, R20291): lost almost all activity
lytic activity at pH ([3]; PHs of 6 and 7, 200 μg/ml, R20291): more efficiently
